Consider one molecule from patent US20190270815A1 (WUXI BIOLOGICS IRELAND, published 2019).

The EC50 is the midpoint of the concentration-response curve. Higher therefore signals a less potent agent.

Experiment [1] addresses T1, murine PD-1 (Sino biological) (murine, UniProt Q02242 25-167, limits assumed).
T1 sequence (looked up): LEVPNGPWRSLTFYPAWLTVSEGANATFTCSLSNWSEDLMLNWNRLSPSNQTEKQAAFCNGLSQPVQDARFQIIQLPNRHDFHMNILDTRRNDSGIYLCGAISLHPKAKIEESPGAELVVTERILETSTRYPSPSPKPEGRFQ
The experiment in a line: ELISA on plate-coated murine PD-1. As for the experimental part: 3.3.1 Cross-reactivity to cynomolgus PD-1 and murine PD-1: Cross-reactivity was measured by ELISA. Plates (Nunc) were coated with cynomolgus PD-1 (Sino Biological) and murine PD-1 (Sino biological) at 1 μg/ml overnight at 4° C. After blocking and washing, […] antibodies were added to the plates and incubated at room temperature for 1 h. The plates were then washed and subsequently incubated with secondary antibody goat anti rat IgG1 HRP (Bethyl) and goat anti rat IgG2b HRP (Bethyl) for 45 min. After washing, TMB substrate was added and the interaction was stopped by 2M HCl. The absorbance at 450 nm was read using a microplate reader (Molecular Device).
(An ELISA detects its analyte on a solid surface through an enzyme-linked reagent.)

For experiment [2], the target named is T2, hPD-1 ECD-His point mutant P 83 (to alanine) (human, UniProt Q15116 25-170).
T2 construct: extracellular domain
Briefly: ELISA, antibody coated, His-tagged PD-1 mutant supernatant; fold change vs silent alanine substitutions. As for the experimental part: (§1) After interacting with the supernatant that contains quantified PD-1 mutant, HRP conjugated anti-His antibody (Rockland, Cat#200-303-382) was added as detection antibody. Absorbance was normalized according to the average of control mutants. After setting an additional cutoff to t4he binding fold change (<0.55), the final determined epitope residues were identified.

Experiment [3] concerns the target T3, hPD-1 ECD-His point mutant D 117 (to alanine) (human, UniProt Q15116 25-170).
T3 construct: extracellular domain
Described as above. As for the experimental part: as §1

Experiment [4] concerns the target T4, hPD-1 ECD-His point mutant K 131 (to alanine) (human, UniProt Q15116 25-170).
T4 construct: extracellular domain
The description is as above. On the procedure: as §1

The target of experiment [5] is T5, hPD-1 ECD-His point mutant I 126 (to alanine) (human, UniProt Q15116 25-170).
T5 construct: extracellular domain
The description is as above. As for the experimental part:
as §1

For experiment [6], the target named is T6, hPD-1 ECD-His point mutant K 135 (to alanine) (human, UniProt Q15116 25-170).
T6 construct: extracellular domain
Described as above. As for the experimental part: as §1

Experiment [7] concerns the target T7, hPD-1 ECD-His point mutant V 144 (to alanine) (human, UniProt Q15116 25-170).
T7 construct: extracellular domain
Described as above. As for the experimental part: as §1

Experiment [8] has as its target T8, human PD-1 expressed on cells (human, UniProt Q15116 25-288).
T8 construct: whole, on cells; also called PD-1 expressing CHO cell; PD-1 transfected CHO-S cells
The experiment in a line: FACS on CHO-S cells expressing human PD-1. As for the experimental part:
3.1 Binding affinity of PD-1 antibodies to cell surface PD-1 molecules tested by flow cytometry (FACS): Antibody binding affinity to cell surface PD-1 was performed by FACS analysis. CHO-S cells expressing human PD-1 were transferred in to 96-well U-bottom plates (BD) at a density of 5×10⁵ cells/ml. Tested antibodies were 1:2 serially diluted in wash buffer (1×PBS/1% BSA) and incubated with cells at 4° C. for 1 h. The secondary antibody goat anti-human IgG Fc FITC (3.0 moles FITC per mole IgG, (Jackson Immunoresearch Lab) was added and incubated at 4° C. in the dark for 1 h. The cells were then washed once and resuspended in 1×PBS/1% BSA, and analyzed by flow cytometery (BD). Fluorescence intensity will be converted to bound molecules/cell based on the quantitative beads Quantum™ MESF Kits, Bangs Laboratories, Inc.). KD was calculated using Graphpad Prism5.

T6 sequence (Q15116 other isoform, or with tags, fused parts or gaps mutant): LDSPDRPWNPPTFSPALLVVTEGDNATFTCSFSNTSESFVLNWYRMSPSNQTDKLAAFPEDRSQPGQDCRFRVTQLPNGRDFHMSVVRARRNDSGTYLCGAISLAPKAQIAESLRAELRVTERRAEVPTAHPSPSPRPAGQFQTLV
T5 sequence (Q15116 other isoform, or with tags, fused parts or gaps mutant): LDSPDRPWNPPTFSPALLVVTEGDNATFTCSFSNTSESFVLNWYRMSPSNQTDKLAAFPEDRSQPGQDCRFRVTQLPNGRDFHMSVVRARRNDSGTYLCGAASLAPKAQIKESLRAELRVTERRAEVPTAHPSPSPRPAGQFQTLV
T7 sequence (Q15116 other isoform, or with tags, fused parts or gaps mutant): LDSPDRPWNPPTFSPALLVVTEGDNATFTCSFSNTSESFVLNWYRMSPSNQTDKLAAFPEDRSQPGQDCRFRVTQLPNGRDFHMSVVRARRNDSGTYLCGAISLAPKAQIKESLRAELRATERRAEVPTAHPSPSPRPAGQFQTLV
T8 sequence (Q15116 25-288): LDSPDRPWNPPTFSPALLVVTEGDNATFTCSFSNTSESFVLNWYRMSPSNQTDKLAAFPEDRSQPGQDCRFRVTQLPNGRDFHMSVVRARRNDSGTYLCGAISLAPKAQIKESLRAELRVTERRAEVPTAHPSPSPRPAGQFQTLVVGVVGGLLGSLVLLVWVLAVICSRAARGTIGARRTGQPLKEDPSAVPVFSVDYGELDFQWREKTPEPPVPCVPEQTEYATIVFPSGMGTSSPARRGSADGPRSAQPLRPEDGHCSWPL
T2 sequence (Q15116 other isoform, or with tags, fused parts or gaps mutant): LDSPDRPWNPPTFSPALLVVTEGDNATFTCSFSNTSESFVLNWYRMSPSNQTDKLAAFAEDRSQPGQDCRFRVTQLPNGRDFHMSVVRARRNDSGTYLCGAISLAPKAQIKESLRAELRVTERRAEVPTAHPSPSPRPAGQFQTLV
T3 sequence (Q15116 other isoform, or with tags, fused parts or gaps mutant): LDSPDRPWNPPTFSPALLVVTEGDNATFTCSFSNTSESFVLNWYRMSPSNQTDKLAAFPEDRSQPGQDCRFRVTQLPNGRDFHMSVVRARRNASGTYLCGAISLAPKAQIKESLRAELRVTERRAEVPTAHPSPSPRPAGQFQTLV
T4 sequence (Q15116 other isoform, or with tags, fused parts or gaps mutant): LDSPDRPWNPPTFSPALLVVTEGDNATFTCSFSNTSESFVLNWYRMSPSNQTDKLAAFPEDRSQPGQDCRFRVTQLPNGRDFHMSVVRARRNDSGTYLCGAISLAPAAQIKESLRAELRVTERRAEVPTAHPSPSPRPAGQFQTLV

B1: 1.103.11 hAb (antibody, V domains shown)
VH: QLQLQESGPGLVKPSETLTLTCTVSADSISSTTYYWVWIRQPPGKGLEWIGSISYSGSTYYNPSLKSRVTVSVDTSKNQFSLKLNSVAATDTALYYCARHLGYNGRYLPFDYWGQGTLVTVSS
VL: QSALTQPASVSGSPGQSITISCTGTSSDVGFYNYVSWYQQHPGKAPELMIYDVSNRPSGVSDRFSGSKSGNTASLTISGLQAEDEADYYCSSYTNISTWVFGGGTKLTVL
notes: fully human monoclonal antibody with a human constant region of IgG4 isotype
Take B1: the binding result in experiment [1] is on record as “no binding (tested: 1 g/ml antibodies (so in the source))”. The fold change in experiment [2] worked out at 0.3; in experiment [3], 0.73; in experiment [4], 0.43; in experiment [5], 0.64; in experiment [6] it was 0.62; in experiment [7] it was 0.22. This molecule also registered an EC50 in experiment [8] of around 2 nM.
